Data published in patent publication US20140031528A1 (NATIONAL UNIVERSITY CORPORATION UNIVERSITY OF TOYAMA, published 2014).

Target: human insulin (human, UniProt P01308 25-54; P01308 90-110)
Assay: ELISA, recombinant antibodies from 293FT culture
Protocol: The full lengths of the guinea pig γ chain, κ chain, and λ chain gene expression units amplified in the above experiments were genetically introduced into 293FT cells and the cells were cultured for two days to bring about the secretion of recombinant guinea pig antibodies in the cell culture. The ability to bind human insulin of the recombinant guinea pig monoclonal antibodies obtained from the antigen specific and nonspecific plasma cells was examined by the ELISA method (FIG. 9).

Sequence of human insulin (P01308 25-54 limits assumed, chain 1 of 2): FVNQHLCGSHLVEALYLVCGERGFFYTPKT
Sequence of human insulin (P01308 90-110 limits assumed, chain 2 of 2): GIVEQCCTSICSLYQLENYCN

B1: guinea pig monoclonal antibody to human insulin, Sample No. 5 (antibody, V domains shown)
VH: QVQLQESGPGLVKPSETLSLTCKVSGFSLMDYSVSWIRQAPGEGLEWIGVIWSSGSTDYNSTFKSRVGMSRDTSKSQVSITLRSLSSEDTAVYYCARAQYFDVWGAGTLVTVSS
VL: QIVLTQSPASLAASPGQKVTITCTASSSVNNNFFHWYQQKPGASPTLLIYRTSRLASGVPARFSGSGSGTSYSLTISSMEGEDVATYYCLQSNSYTFGAGTRLEIK
notes: Recombinant guinea pig IgG (γ/κ) secreted by 293FT cells
binding result: binds
